In the supplement of paper PMC10567573 one finds protein stability index data, which are given here for 94 variants.

The labels stand for the following.
B1: ZNF449 (parent)
chain: RIHSGEEPHKCPECGKRFLRSSDL
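Note: lentivirally expressed fusions sorted by FACS into six bins by GFP to DsRed ratio, PSI derived from sequencing read proportions per bin multiplied by bin number.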

In the series the parent is B1. The experiment in a line: protein stability index of a GFP-peptide fusion (GPS, HEK-293T) (PSI 1-6); higher = more stable. The note with it: c terminus: a fixed tail appended.
As to RIHSGEEPAKCPECGKRFLRSSDL [H9A], the protein stability index was found to be 3.42. For RIHSGEEPLKCPECGKRFLRSSDL [H9L] the value was 2.19. For the variant RIHSGEEPRKCPECGKRFLRSSDL [H9R], the protein stability index was 3.18. For RIHSGEEPQKCPECGKRFLRSSDL [H9Q] the value was 3.19. For RIHSGEEPKKCPECGKRFLRSSDL [H9K] the value was 3.83. For RIHSGEEPMKCPECGKRFLRSSDL [H9M] the value was 3.42; for RIHSGEEPEKCPECGKRFLRSSDL [H9E], 3.78. For the variant RIHSGEEPGKCPECGKRFLRSSDL [H9G], the protein stability index amounted to 2.99. For RIHSGEEPDKCPECGKRFLRSSDL [H9D] the value was 3.5; for RIHSGEEPSKCPECGKRFLRSSDL [H9S], 3.28. For RIHSGEEPFKCPECGKRFLRSSDL [H9F] the value was 3.95. Consider RIHSGEEPYKCPECGKRFLRSSDL [H9Y], for which the protein stability index is 3.48. For RIHSGEEPIKCPECGKRFLRSSDL [H9I] the value was 4.09; for RIHSGEEPCKCPECGKRFLRSSDL [H9C], 4.35. Take RIHSGEEPTKCPECGKRFLRSSDL [H9T]: the protein stability index came to 3.44.

For the variant RIHSGEEPPKCPECGKRFLRSSDL [H9P], the protein stability index stood at 3.2. For RIHSGEEPWKCPECGKRFLRSSDL [H9W] the value was 2.73; for RIHSGEEPVKCPECGKRFLRSSDL [H9V], 4.15; for VIHSGEEPHKCPECGKRFLRSSDL [R1V], 3.05. For QIHSGEEPHKCPECGKRFLRSSDL [R1Q] the value was 4.11. For WIHSGEEPHKCPECGKRFLRSSDL [R1W] the value was 2.28; for NIHSGEEPHKCPECGKRFLRSSDL [R1N], 3.72; for TIHSGEEPHKCPECGKRFLRSSDL [R1T], 3.37. With YIHSGEEPHKCPECGKRFLRSSDL [R1Y], the protein stability index is 1.9.

On to SIHSGEEPHKCPECGKRFLRSSDL [R1S], for which the protein stability index was 3.86. For the variant PIHSGEEPHKCPECGKRFLRSSDL [R1P], the protein stability index turned out to be 4.04. For RIYSGEEPHKCPECGKRFLRSSDL [H3Y] the value was 3.32; for RINSGEEPHKCPECGKRFLRSSDL [H3N], 3.55. For RITSGEEPHKCPECGKRFLRSSDL [H3T] the value was 3.81; for RIMSGEEPHKCPECGKRFLRSSDL [H3M], 3.05.

For RICSGEEPHKCPECGKRFLRSSDL [H3C], the protein stability index is 3.76. As to RIESGEEPHKCPECGKRFLRSSDL [H3E], the protein stability index was 3.48. For the variant RIASGEEPHKCPECGKRFLRSSDL [H3A], the protein stability index is 3.48. For RIKSGEEPHKCPECGKRFLRSSDL [H3K] the value was 2.7; for RIDSGEEPHKCPECGKRFLRSSDL [H3D], 3.85; for RIRSGEEPHKCPECGKRFLRSSDL [H3R], 3.02. For RILSGEEPHKCPECGKRFLRSSDL [H3L] the value was 3.69. For RIFSGEEPHKCPECGKRFLRSSDL [H3F] the value was 2.63; for RIPSGEEPHKCPECGKRFLRSSDL [H3P], 3.69. Consider RISSGEEPHKCPECGKRFLRSSDL [H3S], for which the protein stability index worked out at 3.74. For RIQSGEEPHKCPECGKRFLRSSDL [H3Q] the value was 4.33; for RIISGEEPHKCPECGKRFLRSSDL [H3I], 3.25; for RIVSGEEPHKCPECGKRFLRSSDL [H3V], 3.34. For RIGSGEEPHKCPECGKRFLRSSDL [H3G] the value was 2.72. For RIHSGEEPHKSPECGKRFLRSSDL [C11S] the value was 3.72; for RIHSGEEPHKRPECGKRFLRSSDL [C11R], 4.32; for RIHSGEEPHKHPECGKRFLRSSDL [C11H], 4.41. For RIHSGEEPHKKPECGKRFLRSSDL [C11K], the protein stability index amounted to 4.5. For RIHSGEEPHKAPECGKRFLRSSDL [C11A] the value was 4.32; for RIHSGEEPHKMPECGKRFLRSSDL [C11M], 4.35; for RIHSGEEPHKVPECGKRFLRSSDL [C11V], 4.19.

For RIHSGEEPHKPPECGKRFLRSSDL [C11P], the protein stability index turned out to be 4.23. RIHSGEEPHKIPECGKRFLRSSDL [C11I]: the protein stability index was 4.51.

For the variant RIHSGEEPHKLPECGKRFLRSSDL [C11L], the protein stability index was 4.11. For RIHSGEEPHKNPECGKRFLRSSDL [C11N] the value was 4.57; for RIHSGEEPHKDPECGKRFLRSSDL [C11D], 4.17. For RIHSGEEPHKTPECGKRFLRSSDL [C11T] the value was 4.17; for RIHSGEEPHKYPECGKRFLRSSDL [C11Y], 4.21. For RIHSGEEPHKFPECGKRFLRSSDL [C11F] the value was 3.54. RIHSGEEPHKWPECGKRFLRSSDL [C11W]: the protein stability index came out at 3.79.

As to RIHSGEEEHKCPECGKRFLRSSDL [P8E], the protein stability index stood at 3.44.

Take RIHSGEEMHKCPECGKRFLRSSDL [P8M]: the protein stability index was 3.34. For RIHSGEEFHKCPECGKRFLRSSDL [P8F] the value was 2.44; for RIHSGEEIHKCPECGKRFLRSSDL [P8I], 4.26; for RIHSGEETHKCPECGKRFLRSSDL [P8T], 3.45. For RIHSGEELHKCPECGKRFLRSSDL [P8L] the value was 3.41; for RIHSGEENHKCPECGKRFLRSSDL [P8N], 3. For RIHSGEEDHKCPECGKRFLRSSDL [P8D] the value was 4.1; for RIHSGEEAHKCPECGKRFLRSSDL [P8A], 3.64.

Take RIHSGEEWHKCPECGKRFLRSSDL [P8W]: the protein stability index turned out to be 3.72. For RIHSGEEHHKCPECGKRFLRSSDL [P8H] the value was 3.18; for RIHSGEESHKCPECGKRFLRSSDL [P8S], 3.25; for RIHSGEECHKCPECGKRFLRSSDL [P8C], 3.19. For RIHSGEEQHKCPECGKRFLRSSDL [P8Q] the value was 4.29; for RIHSGEEYHKCPECGKRFLRSSDL [P8Y], 3.57; for RIHSGEEKHKCPECGKRFLRSSDL [P8K], 2.51.

For RIHSYEEPHKCPECGKRFLRSSDL [G5Y], the protein stability index was 3.56. For RIHSFEEPHKCPECGKRFLRSSDL [G5F] the value was 3.22; for RIHSPEEPHKCPECGKRFLRSSDL [G5P], 2.85. For RIHSNEEPHKCPECGKRFLRSSDL [G5N] the value was 3.44; for RIHSVEEPHKCPECGKRFLRSSDL [G5V], 3.07; for RIHSKEEPHKCPECGKRFLRSSDL [G5K], 3.41. For RIHSLEEPHKCPECGKRFLRSSDL [G5L] the value was 3.68. For the variant RIHSQEEPHKCPECGKRFLRSSDL [G5Q], the protein stability index worked out at 3.82.

For the variant RIHSEEEPHKCPECGKRFLRSSDL [G5E], the protein stability index came to 3.62. For RIHSDEEPHKCPECGKRFLRSSDL [G5D] the value was 3.74; for RIHSMEEPHKCPECGKRFLRSSDL [G5M], 3.75; for RIHSHEEPHKCPECGKRFLRSSDL [G5H], 4.07. Turning to RIHSWEEPHKCPECGKRFLRSSDL [G5W], the protein stability index is 3.63. For RIHSTEEPHKCPECGKRFLRSSDL [G5T] the value was 4.24. Turning to RIHSIEEPHKCPECGKRFLRSSDL [G5I], the protein stability index turned out to be 3.34. For RIHSSEEPHKCPECGKRFLRSSDL [G5S] the value was 4.04.

As to RIHSREEPHKCPECGKRFLRSSDL [G5R], the protein stability index is 3.2. For RIHSAEEPHKCPECGKRFLRSSDL [G5A] the value was 3.79.
